Assay results: patent publication US20260242419A1, “A CYCLIC PEPTIDE FOR TRAPPING INTERLEUKIN-1 BETA” (Merck Sharp & Dohme LLC, priority 2023, published 2026)
Starred links: 1 amine or outer side, 2 acyl side, 3 side chain; linkers in the order of their positions; H or OH if unused. Non-standard residues stand in square brackets, D forms with d. dProc3Bn = (2R,3S)-3-benzylpyrrolidine-2-carboxylic acid, O=C([C@H]1[C@@H](Cc2ccccc2)CCN1[*:1])[*:2]; dProc4Bn = (2R,4R)-4-benzylpyrrolidine-2-carboxylic acid, O=C([C@H]1C[C@@H](Cc2ccccc2)CN1[*:1])[*:2]; Trp(βS-Me,4-F) = C[C@@H](c1c[nH]c2cccc(F)c12)[C@H](N)C(=O)O; Bip(4'-COOH) = N[C@@H](Cc1ccc(-c2ccc(C(=O)O)cc2)cc1)C(=O)O; dPro(4R-Bzl(4-F)) = O=C(O)[C@H]1C[C@@H](Cc2ccc(F)cc2)CN1; Ala(pyrimidin-5-yl) = N[C@@H](Cc1cncnc1)C(=O)O; Phe(4-COOH) = N[C@@H](Cc1ccc(C(=O)O)cc1)C(=O)O; Pro(cis-4-F) = O=C(O)[C@@H]1C[C@H](F)CN1; 4Pal = N[C@@H](Cc1ccncc1)C(=O)O; Dab = NCC[C@H](N)C(=O)O; Aib = CC(C)(N)C(=O)O

Molecular target: Recombinant human IL-1β (BioLegend 579404) (human, UniProt P01584 117-269)
Assay: cell-based or functional assay

B1: SEQ ID NO: 30 (peptide)
peptide: cyclo([Bip(4'-COOH)][4Pal][Phe(4-COOH)]G[Pro(cis-4-F)][Trp(βS-Me,4-F)][Aib]EW[Aib][Ala(pyrimidin-5-yl)]QSG[dProc4Bn])
SMILES: C[C@@H](c1c[nH]c2cccc(F)c12)[C@@H]1NC(=O)[C@@H]2C[C@H](F)CN2C(=O)CNC(=O)[C@H](Cc2ccc(C(=O)O)cc2)NC(=O)[C@H](Cc2ccncc2)NC(=O)[C@H](Cc2ccc(-c3ccc(C(=O)O)cc3)cc2)NC(=O)[C@H]2C[C@@H](Cc3ccccc3)CN2C(=O)CNC(=O)[C@H](CO)NC(=O)[C@H](CCC(N)=O)NC(=O)[C@H](Cc2cncnc2)NC(=O)C(C)(C)NC(=O)[C@H](Cc2c[nH]c3ccccc23)NC(=O)[C@H](CCC(=O)O)NC(=O)C(C)(C)NC1=O
  MRC5 IC50: 26 pM

B2: SEQ ID NO: 31 (peptide)
peptide: cyclo([Bip(4'-COOH)][4Pal][Phe(4-COOH)]G[Pro(cis-4-F)][Trp(βS-Me,4-F)][Aib]EW[Aib][Ala(pyrimidin-5-yl)]Q[Dab]G[dProc4Bn])
SMILES: C[C@@H](c1c[nH]c2cccc(F)c12)[C@@H]1NC(=O)[C@@H]2C[C@H](F)CN2C(=O)CNC(=O)[C@H](Cc2ccc(C(=O)O)cc2)NC(=O)[C@H](Cc2ccncc2)NC(=O)[C@H](Cc2ccc(-c3ccc(C(=O)O)cc3)cc2)NC(=O)[C@H]2C[C@@H](Cc3ccccc3)CN2C(=O)CNC(=O)[C@H](CCN)NC(=O)[C@H](CCC(N)=O)NC(=O)[C@H](Cc2cncnc2)NC(=O)C(C)(C)NC(=O)[C@H](Cc2c[nH]c3ccccc23)NC(=O)[C@H](CCC(=O)O)NC(=O)C(C)(C)NC1=O
  MRC5 IC50: 24 pM

B3: SEQ ID NO: 3 (peptide)
peptide: cyclo([Bip(4'-COOH)][4Pal][Phe(4-COOH)]G[Pro(cis-4-F)][Trp(βS-Me,4-F)][Aib]EW[Aib][Ala(pyrimidin-5-yl)]QSG[dPro(4R-Bzl(4-F))])
SMILES: C[C@@H](c1c[nH]c2cccc(F)c12)[C@@H]1NC(=O)[C@@H]2C[C@H](F)CN2C(=O)CNC(=O)[C@H](Cc2ccc(C(=O)O)cc2)NC(=O)[C@H](Cc2ccncc2)NC(=O)[C@H](Cc2ccc(-c3ccc(C(=O)O)cc3)cc2)NC(=O)[C@H]2C[C@@H](Cc3ccc(F)cc3)CN2C(=O)CNC(=O)[C@H](CO)NC(=O)[C@H](CCC(N)=O)NC(=O)[C@H](Cc2cncnc2)NC(=O)C(C)(C)NC(=O)[C@H](Cc2c[nH]c3ccccc23)NC(=O)[C@H](CCC(=O)O)NC(=O)C(C)(C)NC1=O
  MRC5 IC50: 37 pM

## cyclo([Bip(4'-COOH)][4Pal][Phe(4-COOH)]G[Pro(cis-4-F)][Trp(βS-Me,4-F)][Aib]EW[Aib][Ala(pyrimidin-5-yl)]Q[Dab]G[dProc3Bn]) [SEQ ID NO: 29]
  MRC5 IC50: 19 pM

B4: SEQ ID NO: 28 (peptide)
peptide: cyclo([Bip(4'-COOH)][4Pal][Phe(4-COOH)]G[Pro(cis-4-F)][Trp(βS-Me,4-F)][Aib]EW[Aib][Ala(pyrimidin-5-yl)]QSG[dProc3Bn])
SMILES: C[C@@H](c1c[nH]c2cccc(F)c12)[C@@H]1NC(=O)[C@@H]2C[C@H](F)CN2C(=O)CNC(=O)[C@H](Cc2ccc(C(=O)O)cc2)NC(=O)[C@H](Cc2ccncc2)NC(=O)[C@H](Cc2ccc(-c3ccc(C(=O)O)cc3)cc2)NC(=O)[C@H]2[C@@H](Cc3ccccc3)CCN2C(=O)CNC(=O)[C@H](CO)NC(=O)[C@H](CCC(N)=O)NC(=O)[C@H](Cc2cncnc2)NC(=O)C(C)(C)NC(=O)[C@H](Cc2c[nH]c3ccccc23)NC(=O)[C@H](CCC(=O)O)NC(=O)C(C)(C)NC1=O
  MRC5 IC50: 23 pM
